Assays:
[1] = Projection of intravenous and subcutaneous PK parameters for humans; parameters: species or system human
Description: While a dose of 30 μg/kg once weekly (QW) is projected from the cynomolgus monkey PK data, the dose should be ten times higher (300 μg/kg) to adjust for the difference in in vivo potency.

[2] = Rat pharmacokinetics, subcutaneous dosing; assay type: in vivo, Sprague-Dawley rats; settings: single dose 1 mg/ml
Description: (§1) In the rat, four pharmacokinetic parameters were measured for Gattex® (a GLP-2 peptide having the A2G mutation): CL, Vc, Vt and Q. The same pharmacokinetic parameters were also measured for GLP-2 peptibodies A, B, E, J, K, L, M, O and P. The data is shown in Table 5. Male Sprague-Dawley rats (3 animals per group) were injected subcutaneously into the intra-scapular region of the animal. A singles dose of test article was injected at a dose level of 1 mg/ml. The test articles were formulated in PBS pH 7.4 at a concentration of Blood samples were taken 0.083, 0.167, 0.33, 0.5, 1, 2, 6, 24, 48, 72, 120, 168, 240, and 336 hours post dose. Blood samples were collected into heparinized tubes and centrifuged for 5 minutes at 2000 xg within 10 minutes of collection. 100 μL of plasma were transferred to a 1.51 ml Eppendorf tube containing 2 μL of 50 mM PMSF. After mixing the plasma samples were frozen at −80° C. until analysis. Meso Scale Discovery (MSD) ELISA was undertaken to assay for the concentration of the GLP-2 peptibodies.
A sandwich immunoassay was developed using either an anti-Human IgG1 Fc antibody or an anti-human albumin antibody for capture of the peptibody and a sulfotag labeled anti GLP-2 antibody for detection.

[3] = Rat pharmacokinetics, intravenous dosing; assay type: in vivo, Sprague-Dawley rats; settings: single dose 1 mg/ml
Description: as §1, with “4.” for “5.”, “intravenously either via a jugular vein or tail vein catheter.” for “subcutaneously into the intra-scapular region of the animal.”, “1.5” for “1.51”, “mixing,” for “mixing”, “analysis.” for “analysis. Meso Scale Discovery (MSD) ELISA was undertaken to assay for the concentration of the GLP-2 peptibodies.”

[4] = NanoDSF melting temperature / thermal stability; assay type: physicochemical
Description: Each of the GLP-2 peptibodies was tested by determining melting temperature with nanodifferential scanning fluorimetry (NanoDSF). NanoDSF is a measurement of protein stability over a range of temperatures, with a temperature ramp employed. The stability of tryptophan is measured by fluorescence, as reflected in a ratio of fluorescence at 350 nm to fluorescence at 330 nm. From the assay, one or more melting temperatures are determined. Because a protein in a certain state is understood to have a melting temperature, the number of melting temperatures observed reflects the number of different states.
(§2) Stability analysis was then performed using SEC-MALS and NanoDSF. For SEC-MALS, a Sepax Zenix C-150 column was used. The mobile phase buffer was 1× PBS with a final concentration of 400 mM NaCl. The flow rate was 0.8 mL per minute. 20 micrograms of total protein was injected. For NanoDSF, 10 microliters of sample was used, without normalization of the samples.
as §2

[5] = molecular target: T1, hFcRn (extracellular domain of the FcRN) (Homo sapiens, UniProt P55899); test: FcRn binding by surface plasmon resonance (Biacore)
T1 construct: made in house
T1 sequence (P55899 24-297 limits assumed): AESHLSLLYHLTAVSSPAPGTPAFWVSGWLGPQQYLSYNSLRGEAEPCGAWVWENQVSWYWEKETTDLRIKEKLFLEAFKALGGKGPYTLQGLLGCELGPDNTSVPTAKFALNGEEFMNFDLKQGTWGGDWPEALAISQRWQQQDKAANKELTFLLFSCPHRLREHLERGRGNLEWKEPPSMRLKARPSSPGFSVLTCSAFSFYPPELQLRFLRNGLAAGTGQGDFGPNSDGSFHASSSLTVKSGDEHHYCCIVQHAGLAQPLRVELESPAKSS
T1 sequence (P61769 21-119 partner): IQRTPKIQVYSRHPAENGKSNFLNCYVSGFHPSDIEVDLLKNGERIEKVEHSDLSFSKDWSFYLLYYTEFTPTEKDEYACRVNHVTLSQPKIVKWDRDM
Excerpt: Binding to the Fc neonatal receptor (FcRN) allows for recycling of the molecules and leads to an extended in vivo serum half-life of the Fc fusion proteins. Recycling occurs as the molecules are passively taken into the cells and the pH of the endosomes is lower. That leads to binding of the Fc portion of the molecule to the FcRN. When the FcRN recycles back to the surface of the cell, the pH is then neutral and the protein is released back into the serum.
Binding to the extracellular domain of the FcRN was measured by surface plasmon resonance (SPR) using a Biacore system. Direct immobilization with FcRn was achieved via amine coupling of a CM5 chip with FcRn under the following conditions: • i) hFcRn (expressed and purified in house) is diluted in Acetate buffer pH 5.0 to 5 μg/mL. • ii) Immobilize 5 μg/mL of FcRn with target of 500 RU on CM5 chip in PBS pH 7.0 • iii) Final response 454 RU • iv) Running buffer: PBS-P+, pHed to 5.5
The kinetic binding study was done using the following protocol. Samples were diluted in PBS-P+ to 50, 25, 12.5, 6.25, 3.125, 1.56, 0.78, 0.39, 0 nM. The parameters were set as follows: • i) Association and Dissociation 300 s at Flow rate 30 μL/min • ii) Regeneration with 25 mM Tris, 150 mM NaCl pH 8.0 40 s at 60 μL/min
A measurement of the binding of the GLP-2 peptibodies to the Fc neonatal receptor (FcRN) was undertaken at pH 5.5 and pH 7.4.

[6] = Cynomolgus monkey pharmacokinetic study; assay type: in vivo, cynomolgus monkeys; settings: 0.75 mg/kg
Description: Pharmacokinetics studies of teduglutide, GLP-2 Peptibody B and GLP-2 Peptibody K were formed in cynomolgus monkeys with citrulline assayed as a biomarker of GLP-2 concentration. In the study, 12.5 nmol/kg teduglutide was administered subcutaneously to a group of 6 male cynomolgus monkeys at day 1. Then for one set of 2 monkeys, 25 nmol/kg GLP-2 Peptibody B was administered intravenously at day 7, day 21, day 28, day 35, and day 42. For another set of 3 monkeys, 25 nmol/kg GLP-2 Peptibody B was administered subcutaneously at day 7, day 21, day 28, day 35, and day 42. For another set of monkeys, 5 nmol/kg GLP-2 Peptibody K was administered intravenously (2 monkeys) and subcutaneously (3 monkeys) at day 7, day 21, day 28, day 35, and day 42. For another set of monkeys, 25 nmol/kg GLP-2 Peptibody K was administered subcutaneously (3 monkeys) and intravenously (2 monkeys) at day 7, day 21, day 28, day 35, and day 42.

[7] = SEC-MALS (Sepax Zenix C-150) peak distribution; assay type: physicochemical
Description: A SEC-MALS assay was performed to determine the primary state (main peak) and its molecular weight. […] The GLP-2 peptibody O (albumin fusion) eluted at a molecular weight indicative of a monomer.
as §2, §2

With “GLP-2 peptibody B: GLP-2[A2G]-GGGGG linker-IgG1 Fc (LALA) with C-terminal lysine; SEQ ID NO: 4” the Vc [1] was 0.0494 L/kg, the Vt [1] was 0.0425 L/kg and the ka [1] was 2.43 day⁻¹. The “CL (value in parentheses)” value ([1]; exponent on CL 0.85, monkey 3.5 kg, human 70 kg) was 1.04 mL/h/kg, the CL ([1]; first value of cell) was 1.63 mL/h/kg and the F ([1]; first value of cell) was 98%. For the same substance, the Q ([1]; first value of cell) was 1 mL/h/kg, the “F (value in parentheses)” value ([1]; value in parentheses) was 60% and the “Q (value in parentheses)” value ([1]; value in parentheses) was 0.642 mL/h/kg. It also gave a CL [2] of 1.79 mL/h/kg, a Q [2] of 2.17 mL/h/kg and a Vc [2] of 0.073 L/kg. The Vt [2] was 0.068 L/kg, the ka [2] was “B (0.45 ka/day,” and the CL [3] was 2 mL/h/kg. The Q [3] was 2.42 mL/h/kg, the Vc [3] was 0.031 L/kg and the Vt [3] was 0.076 L/kg. The “NanoDSF melting temperature 1” value ([4]; first transition) was 1 = 67.1 °C, the “NanoDSF melting temperature 2” value ([4]; second transition) was 2 = 79.9 °C and the Kd ([5]; pH 5.5) was 1.7 nM. For the same substance, the “FcRN KD at pH 7.4” value ([5]; pH 7.4) was “No binding in range tested”, the CL ([6]; MDPK, intravenous) was 0.417 mL/h/kg and the Q ([6]; MDPK, intravenous) was 1.2 mL/h/kg. It also gave a Vc ([6]; MDPK, intravenous) of 0.0187 L/kg, a Vt ([6]; MDPK, intravenous) of 0.0329 L/kg and a CL/F ([6]; MDPK, subcutaneous) of 0.737 mL/h/kg. For the same substance, the Vc ([6]; MDPK, subcutaneous) was 0.094 L/kg, the “association constant (ka)” value ([6]; MDPK, subcutaneous) was 1.59 day⁻¹ and the CL ([6]; SDPK, intravenous) was 0.396 mL/h/kg. It also gave a Q ([6]; SDPK, intravenous) of 1.11 mL/h/kg, a Vc ([6]; SDPK, intravenous) of 0.0171 L/kg and a Vt ([6]; SDPK, intravenous) of 0.0276 L/kg. For the same substance, the CL/F ([6]; SDPK, subcutaneous) was 0.737 mL/h/kg, the Vc ([6]; SDPK, subcutaneous) was 0.0924 L/kg and the “association constant (ka)” value ([6]; SDPK, subcutaneous) was 1.52 day⁻¹. The “SEC-MALS Zenix C-150 main peak” value [7] was 85% main peak, 158,800 g/mol.
